Experiment [1] deals with T1, RBD-Fc (receptor binding domain of SARS-CoV-2 spike fused to Fc) (SARS-CoV-2, UniProt P0DTC2). The experiment is described as follows: SPR. Background: Surface plasmon resonance follows binding to a sensor surface in real time, without labels.
Experiment [2] concerns the target T1, RBD-Fc (receptor binding domain of …). The experiment can be described thus: SPR. The source holds these as a separate data set.

Read-outs that look alike come from different tables or passages of the source.

As a reminder, the Kd is the equilibrium constant for the complex coming apart. A low value points to tighter binding.

B1: 3N39 mutant sACE2-His (domain or fragment)
chain: QSTIEEQVETFLDNFNHKAEDLFYQSSLASWNYNTNITEENVQNMNIAGDKWSAFLKEQSTFAQMYPLQEIQHLTVKLQLQALQQNGSSVLSEDKSKRLNTILNTMSTIYSTGKVCNPDNPQECLLLEPGLNEIMANSLDYNERLWAWESWRSEVGKQLRPLYEEYVVLKNEMARANHYEDYGDYWRGDYEVNGVDGYDYSRGQLIEDVEHTFEEIKPLYEHLHAYVRAKLMNAYPSYISPIGCLPAHLLGDMWGRFWTNLYSLTVPFGQKPNIDVTDAMVDQAWDAQRIFKEAEKFFVSVGLPNMTQGFWENSMLTDPGNVQKAVCHPTAWDLGKGDFRILMCTKVTMDDFLTAHHEMGHIQYDMAYAAQPFLLRNGANEGFHEAVGEIMSLSAATPKHLKSIGLLSPDFQEDNETEINFLLKQALTIVGTLPFTYMLEKWRWMVFKGEIPKDQWMKKWWEMKREIVGVVEPVPHDETYCDPASLFHVSNDYSFIRYYTRTLYQFQFQEALCQAAKHEGPLHKCDISNSTEAGQKLFNMLRLGKSEPWTLALENVVGAKNMNVRPLLNYFEPLFTWLKDQNKNSFVGWSTDWSPYAD
Take B1: the Kd came to 0.32 nM in experiment [1] and 0.29 nM in experiment [2].

B2: 3N39v2 mutant sACE2-His (domain or fragment)
chain: QSTIEEQVKTFLDNFNHKAEDLFYQSSLASWNYNTNITEENVQNMNNAGDKWSAFLKEQSTFAQMYPLQEIQNLTVKLQLQALQQNGSSVLSEDKSKRLNTILNTMSTIYSTGKVCNPDNPQECLLLEPGLNEIMANSLDYNERLWAWESWRSEVGKQLRPLYEEYVVLKNEMARANHYEDYGDYWRGDYEVNGVDGYDYSRGQLIEDVEHTFEEIKPLYEHLHAYVRAKLMNAYPSYISPIGCLPAHLLGDMWGRFWTNLYSLTVPFGQKPNIDVTDAMVDQAWDAQRIFKEAEKFFVSVGLPNMTQGFWENSMLTDPGNVQKAVCHPTAWDLGKGDFRILMCTKVTMDDFLTAHHEMGHIQYDMAYAAQPFLLRNGANEGFHEAVGEIMSLSAATPKHLKSIGLLSPDFQEDNETEINFLLKQALTIVGTLPFTYMLEKWRWMVFKGEIPKDQWMKKWWEMKREIVGVVEPVPHDETYCDPASLFHVSNDYSFIRYYTRTLYQFQFQEALCQAAKHEGPLHKCDISNSTEAGQKLFNMLRLGKSEPWTLALENVVGAKNMNVRPLLNYFEPLFTWLKDQNKNSFVGWSTDWSPYAD
With B2, the affinity in experiment [1], expressed as Kd, was 0.54 nM. This counts as sub-nanomolar.

These data come from paper PMC8217473 (2021).
